Reference: PMC10019781, “Structure and function of Plasmodium actin II in the parasite mosquito stages” (PLOS Pathogens, 2023)

Experiments:
[1] = target: the molecule itself; assay: dynamic light scattering; polymerizing conditions, without JAS; 1.3 mg/ml, 70 ul, 4°C
[2] = target: the molecule itself; assay: dynamic light scattering; non-polymerizing conditions; 1.3 mg/ml, 70 ul, 4°C

Protein | stoichiometry N [1] | stoichiometry N [2]
Plasmodium actin I (natural protein, actin I of Plasmodium; its cited filament structures are of P. falciparum actin I; in the pyrene assays a mixture of pyrene-labelled and unlabelled actin was used; also called F-actin I) not shown | 2 | –
Plasmodium falciparum actin II (natural protein, methyl-histidine at H73 (around 90% of actin II when expressed in insect cells), actin II of Plasmodium falciparum, PlasmoDB PF3D7_1412500; gene synthesized and codon-optimized for insect cells; In the pyrene assays (critical concentration, polymerization) a mixture of pyrene-labelled and unlabelled actin (ratio 1:3) was used; The first four N-terminal residues are not resolved in the filament maps; also called PfActII; F-actin II; source: Sf9 (Spodoptera frugiperda) cells, …) not shown | – | 2
